Measurements taken from US20070054848A1 (published 2007).

B3: endogenous p75 of mouse post-natal (P9) cerebellum / cerebellar neurons (receptor, UniProt Q9Z0W1 32-427, looked up)
chain: KETCSTGMYTHSGECCKACNLGEGVAQPCGANQTVCEPCLDSVTFSDVVSATEPCKPCTECLGLQSMSAPCVEADDAVCRCSYGYYQDEETGRCEACSVCGVGSGLVFSCQDKQNTVCEECPEGTYSDEANHVDPCLPCTVCEDTERQLRECTPWADAECEEIPGRWITRSTPPEGSDVTTPSTQEPEAPPERDLIASTVADTVTTVMGSSQPVVTRGTADNLIPVYCSILAAVVVGLVAYIAFKRWNSCKQNKQGANSRPVNQTPPPEGEKLHSDSGISVDSQSLHDQQTHTQTASGQALKGDGNLYSSLPLTKREEVEKLLNGDTWRHLAGELGYQPEHIDSFTHEACPVRALLASWGAQDSATLDALLAALRRIQRADIVESLCSESTATSPV
notes: Endogenous protein in lysates; also called p75NTR

Tests used:
[1] = molecular target: B3; experiment: figure legend (FIG. 6C): co-immunoprecipitation of p75 and Rho GDI from cerebellar neurons
[2] = molecular target: T1, amino-terminally FLAG-tagged human p75 (human, UniProt P08138 29-427); experiment: co-precipitation: p75 precipitated from transfected 293T cells (anti-FLAG, protein A sepharose) incubated with GST-Rho GDI, anti-GST blot
T1 construct: also called FLAG-tagged p75; FLAG-p75; not shown: FLAG tag
T1 sequence: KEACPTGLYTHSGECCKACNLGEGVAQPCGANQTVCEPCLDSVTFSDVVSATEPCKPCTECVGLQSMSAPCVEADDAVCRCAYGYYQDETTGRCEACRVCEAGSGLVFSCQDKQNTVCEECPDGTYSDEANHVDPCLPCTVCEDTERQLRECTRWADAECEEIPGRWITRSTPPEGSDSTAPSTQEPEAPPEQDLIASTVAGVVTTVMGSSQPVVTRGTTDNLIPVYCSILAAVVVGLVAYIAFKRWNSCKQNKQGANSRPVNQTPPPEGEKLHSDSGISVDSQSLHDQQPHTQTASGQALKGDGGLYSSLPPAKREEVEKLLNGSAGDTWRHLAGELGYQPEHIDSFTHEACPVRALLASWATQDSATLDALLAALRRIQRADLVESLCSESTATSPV

[3] = molecular target: T2, Nogo receptor, endogenous in P9 cerebellum (UniProt Q99PI8 27-447); experiment: figure legend (FIG. 11C)
T2 construct: also called NgR; the Nogo receptor
T2 sequence (looked up): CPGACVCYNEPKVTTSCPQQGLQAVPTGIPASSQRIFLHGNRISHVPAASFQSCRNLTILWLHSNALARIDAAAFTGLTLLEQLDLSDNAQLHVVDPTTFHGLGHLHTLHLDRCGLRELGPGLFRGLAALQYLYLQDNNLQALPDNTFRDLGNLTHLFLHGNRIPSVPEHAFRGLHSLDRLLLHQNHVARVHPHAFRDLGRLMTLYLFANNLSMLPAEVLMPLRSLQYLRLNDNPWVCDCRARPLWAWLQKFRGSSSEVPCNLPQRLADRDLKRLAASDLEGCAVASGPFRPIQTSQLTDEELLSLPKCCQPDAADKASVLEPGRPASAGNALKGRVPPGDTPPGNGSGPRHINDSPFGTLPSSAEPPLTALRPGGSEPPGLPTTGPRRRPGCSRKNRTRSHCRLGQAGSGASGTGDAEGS

B1: Rho GDI, endogenous in mouse post-natal cerebellar neurons (other, UniProt Q99PT1 2-204, looked up)
chain: AEQEPTAEQLAQIAAENEEDEHSVNYKPPAQKSIQEIQELDKDDESLRKYKEALLGRVAVSADPNVPNVIVTRLTLVCSTAPGPLELDLTGDLESFKKQSFVLKEGVEYRIKISFRVNREIVSGMKYIQHTYRKGVKIDKTDYMVGSYGPRAEEYEFLTPMEEAPKGMLARGSYNIKSRFTDDDKTDHLSWEWNLTIKKEWKD
Q: Does B1 bind [1]?
A: Result: binds

B2: recombinant human GST-Rho GDI (other)
chain: MAEQEPTAEQLAQIAAENEEDEHSVNYKPPAQKSIQEIQELDKDDESLRKYKEALLGRVAVSADPNVPNVVVTGLTLVCSSAPGPLELDLTGDLESFKKQSFVLKEGVEYRIKISFRVNREIVSGMKYIQHTYRKGVKIDKTDYMVGSYGPRAEEYEFLTPVEEAPKGMLARGSYSIKSRFTDDDKTDHLSWEWNLTIKKDWKD
notes: Bought (Cytoskeleton); also called recombinant Rho GDI; not shown: glutathione S-transferase (GST) fusion moiety
Q: Does B2 bind [2]?
A: Result: binds

Q: Does B3 bind [3]?
A: Result: binds
